Biological target: TgSPT1 Δ158 (Toxoplasma gondii serine palmitoyltransferase 1 with an N-terminal deletion of 158 amino acids) (Toxoplasma gondii)
Test: SAXS (small-angle X-ray scattering); size exclusion chromatography HPLC mode, Beamline B21 Diamond Light Source; sample concentrated to ~5 mg/ml; Porod volume 150387 Å^3 equivalent to 94 kDa; ab initio envelope compared with a homodimeric homology model

TgSPT1 Δ158 (Toxoplasma gondii serine palmitoyltransferase 1 with an N-terminal deletion of 158 amino acids) (enzyme)
stoichiometry N: 2
